The values that follow come from PMC8234197.

A word on the stoichiometry N: it is the number of molecules, sites or subunits per partner or assembly.

The target of assay [1] is MsuD^ΔC–16 (MsuD with the last 16 residues of the C terminus deleted) (Pseudomonas fluorescens).
Assay [2] shares this target. The experiment in a line: SEC; analytical gel filtration, Enrich SEC 650 10 × 300 column, 4 °C, 50 mM sodium phosphate, 150 mM NaCl, pH 7.2, with high-molecular-weight standards. Background: Size exclusion chromatography separates by hydrodynamic size, large species first.
Assay [3] addresses alkanesulfonate monooxygenase MsuD from Pseudomonas fluorescens (wildtype) (Pseudomonas fluorescens). The experiment in a line: crystal structure; cocrystal with FMN and MS− (P6_1, four chains per asymmetric unit); unliganded and FMN- or FMN/MS−-soaked crystals (P2_1, two tetramers per asymmetric unit).
For assay [4] the target is unchanged.
The target is the same in assay [5]. In words: SEC; analytical gel filtration, Enrich SEC 650 10 × 300 column, 4 °C, 50 mM sodium phosphate, 150 mM NaCl, pH 7.2, with high-molecular-weight standards.

On to “MsuD^ΔC–16 (MsuD with the last 16 residues of the C terminus deleted) (domain or fragment)”, for which, in assay [1], the sulfite formation from MS− in a coupled reaction with MsuE (DTNB assay) (µmol/min/µmol enzyme) was determined as 0.45. The stoichiometry N in assay [2] worked out at 2.

Turning to “alkanesulfonate monooxygenase MsuD from Pseudomonas fluorescens (wildtype) (enzyme)”, the stoichiometry N in assay [3] and in assay [5] was 4 in each case. In assay [4], this substance registered a sulfite formation from MS− in a coupled reaction with MsuE (DTNB assay), wildtype under the conditions of the MsuD^ΔC–16 test (µmol/min/µmol enzyme) of 5.7.
